The text below walks through data of patent publication US20260232827A1 (Zymeworks, published 2026).

The test deals with T1, cynomolgus monkey NaPi2b (cynomolgus monkey, UniProt O95436 1-690 (human entry)).
T1 construct: also called Cyno NaPi2b; Cy NaPi2b
T1 chain: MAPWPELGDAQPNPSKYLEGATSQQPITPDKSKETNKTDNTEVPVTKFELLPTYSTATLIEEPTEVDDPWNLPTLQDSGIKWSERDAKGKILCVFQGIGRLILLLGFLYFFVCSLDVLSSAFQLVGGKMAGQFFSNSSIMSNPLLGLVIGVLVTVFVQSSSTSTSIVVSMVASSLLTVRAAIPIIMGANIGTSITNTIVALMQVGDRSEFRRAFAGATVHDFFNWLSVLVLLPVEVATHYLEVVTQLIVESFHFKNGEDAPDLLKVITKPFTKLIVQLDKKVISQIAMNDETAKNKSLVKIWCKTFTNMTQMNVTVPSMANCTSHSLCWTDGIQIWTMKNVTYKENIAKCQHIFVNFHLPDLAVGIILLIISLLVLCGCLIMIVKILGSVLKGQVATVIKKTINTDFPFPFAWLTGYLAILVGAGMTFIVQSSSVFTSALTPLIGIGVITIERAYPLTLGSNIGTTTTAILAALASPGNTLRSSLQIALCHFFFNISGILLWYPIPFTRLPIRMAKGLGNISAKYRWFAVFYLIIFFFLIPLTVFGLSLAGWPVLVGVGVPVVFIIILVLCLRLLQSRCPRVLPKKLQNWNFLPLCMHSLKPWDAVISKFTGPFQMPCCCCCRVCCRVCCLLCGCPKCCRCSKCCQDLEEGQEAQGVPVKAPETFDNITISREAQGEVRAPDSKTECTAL
Put plainly: flow cytometry, HEK293-6e cells transfected with cynomolgus NaPi2b.

Protocol: Briefly, HEK293-6e cells were transfected for ~24 hours to transiently express human NaPi2b, cynomolgus or mouse NaPi2b, at 1 μg of DNA per 1 million cells. Following transfection, 50,000 cells per well were seeded in V-bottom 96-well plates and incubated with 200 nM of primary antibody for 18-24 hours at 4° C. to prevent internalization. […] Following staining and washing, fluorescence was detected by flow cytometry on BD LSRFortessa™ Cell Analyzer (BD Biosciences, Franklin Lake, NJ) with 10,000 minimum events collected per well. The AF647/APC-A GeoMean (fluorescence signal geometric mean, proportional to anti-Human AF647 binding) was calculated for the live singlet cell population for each primary antibody using FlowJo™ v8 software (BD Biosciences, Franklin Lake, NJ). The Bmax and Kd of each primary antibody were calculated using GraphPad Prism Version 9 (GraphPad Software, San Diego, CA)

B1: v18992 (MX35), reference anti-NaPi2b antibody (antibody, human IgG1, kappa)
heavy 1: GQVQLVQSGAEVVKPGASVKMSCKASGYTFTGYNIHWVKQAPGQGLEWIGAIYPGNGDTSYKQKFRGRATLTADTSTSTVYMELSSLRSEDSAVYYCARGETARATFAYWGQGTLVTVSSASTKGPSVFPLAPSSKSTSGGTAALGCLVKDYFPEPVTVSWNSGALTSGVHTFPAVLQSSGLYSLSSVVTVPSSSLGTQTYICNVNHKPSNTKVDKKVEPKSCDKTHTCPPCPAPELLGGPSVFLFPPKPKDTLMISRTPEVTCVVVDVSHEDPEVKFNWYVDGVEVHNAKTKPREEQYNSTYRVVSVLTVLHQDWLNGKEYKCKVSNKALPAPIEKTISKAKGQPREPQVYVYPPSRDELTKNQVSLTCLVKGFYPSDIAVEWESNGQPENNYKTTPPVLDSDGSFALVSKLTVDKSRWQQGNVFSCSVMHEALHNHYTQKSLSLSPG
heavy 2: not shown
light: GDIQMTQSPSSLSASVGDRVTITCSASQDIGNFLNWYQQKPGKTVKVLIYYTSSLYSGVPSRFSGSGSGTDYTLTISSLQPEDFATYYCQQYSKLPLTFGQGTKLELKRTVAAPSVFIFPPSDEQLKSGTASVVCLLNNFYPREAKVQWKVDNALQSGNSQESVTEQDSKDSTYSLSSTLTLSKADYEKHKVYACEVTHQGLSSPVTKSFNRGEC
B1 had a Bmax of 2360.
